Experimental data from PMC4917896, “RNA binding proteins regulate anabolic and catabolic gene expression in chondrocytes”.

Biological target: TTP (tristetraprolin), GST-TTP (UniProt P26651 1-326)
Assay: EMSA; 10 mM Tris-HCl pH 7.5, 50 mM KCl, 1 mM DTT, 5% glycerol, 500 ug/ml tRNA, 40 ng probe in 20 ul, 20 min at 4 C (stated for lysate EMSA); 6% native PAGE on ice
Settings: protein: commercial; (GST fusion); label: 3' biotin

TTP (tristetraprolin), GST-TTP, sequence (P26651 whole entry): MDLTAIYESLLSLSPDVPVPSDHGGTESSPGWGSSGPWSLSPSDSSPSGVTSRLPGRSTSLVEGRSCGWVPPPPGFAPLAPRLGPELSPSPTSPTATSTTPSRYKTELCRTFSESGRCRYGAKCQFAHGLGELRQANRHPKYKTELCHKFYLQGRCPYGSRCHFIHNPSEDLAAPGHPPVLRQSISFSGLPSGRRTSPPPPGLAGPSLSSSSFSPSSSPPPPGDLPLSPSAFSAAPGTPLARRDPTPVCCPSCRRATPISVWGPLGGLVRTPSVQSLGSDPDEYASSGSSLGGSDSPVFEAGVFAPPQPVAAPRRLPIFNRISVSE

B1: P6M (probe 6, AUUUA to AGGGA) (ssRNA)
RNA: GGGGUUAAAUUAUGUUCUUAACUGUAACCAGUUUUUUUUUAGGGAUCUCUUUAAUCUUUUUUUAUUAUUAAAAGCAAGUUUC
**Q.** Does B1 bind?
**A.** no binding

B2: P5M (probe 5, AUUUA to AGGGA) (ssRNA)
RNA: GGGAGCAGUUAACCUUCAAGACAUUCCACUUGCUAAAAUUAGGGAUUUUGUAAGGAGAGGUUUUAAUUAAAACAAAAAAAAA
**Q.** Does B2 bind?
**A.** no binding
